78 sequences from the supplement of paper PMC10126150 can be followed below.

± gives the standard deviation of the averaged measurements.
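Further: ATP exposure 15 min at 22 °C before imaging.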

This series has as its system ATP. The series can be described thus: switch fluorescence ratio, 500 uM ATP over buffer (Cy3 cluster intensity, sum of 5 cycles each) (fold (ratio)); higher = stronger signal-on switching upon ATP binding; sequences stand for … in TCGTCGGCAGCGTCAGATGTGTATAAGAGACAGTTTTTTTTTTTTTTTTTTTTTTTTT…TC. Conditions: aptamer strand: ATP DNA aptamer (quencher-CACCTGGGGGAGTATTGCGGAGGAAGG + anchor), 100 nM annealed; ATP concentration: 500 uM. A digest of the protocol: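 Values give the fluorescence ratio for each switch-domain sequence, averaged from per-cluster ratios of summed target-cycle to summed buffer-cycle Cy3 intensity. The Cy3-labelled switching-strand clusters sat on a modified Illumina MiSeq flow-cell, were annealed to 100 nM quencher-labelled ATP aptamer, and were imaged in selection buffer, then after 15 min with 500 uM ATP at 22 °C. Five cycles ran with NaOH stripping and re-annealing between them, and clusters outside 100-1000 RFU were excluded.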
Consider GCTGATAATG, for which the switch fluorescence ratio was 0.978 ± 0.014.
For ACGCTTCTTG the value was 1 ± 0.028; for ACAGTGGTCG, 1.06 ± 0.033.
For CGCGGACGGT the value was 1.05 ± 0.052; for TCCGAGGCCA, 3.91 ± 3.2.
Turning to GTTTAAGTTA, the switch fluorescence ratio amounted to 0.991 ± 0.025.
For TAATGATTGA the value was 0.985 ± 0.0078.
For CGGTGTGTAG the value was 0.983 ± 0.062.
Turning to TTTAAGTGCG, the switch fluorescence ratio was 1.05 ± 0.09.
Consider TTTGGCCCCT, for which the switch fluorescence ratio amounted to 1 ± 0.03.
For CAGGTAGGCG, the switch fluorescence ratio stood at 0.984 ± 0.016.
For ACTGTGGGGG the value was 1.01 ± 0.022.
As to TGGGAATTGA, the switch fluorescence ratio is 0.9976 ± 0.0057.
As to GCTACCACTC, the switch fluorescence ratio is 1.089 ± 0.01.
For AATAGGATCG the value was 1.01 ± 0.045; for CGTGAACATA, 1.02 ± 0.034.
Turning to TTTGTCGGGT, the switch fluorescence ratio turned out to be 0.994 ± 0.014.
In the case of AAGGGATGCG, the switch fluorescence ratio is 1.09 ± 0.097.
As to TTATTGGAGG, the switch fluorescence ratio worked out at 0.9918 ± 0.0077.
For the sequence CCCGGGGTTT, the switch fluorescence ratio was determined as 1.31 ± 0.36.
For GATGTCTAGC the value was 0.9894 ± 0.0065; for AATGTCTCTC, 0.998 ± 0.058.
On to GGCTTTGAGG, for which the switch fluorescence ratio worked out at 1.01 ± 0.019.
With AGCGTTTTCA, the switch fluorescence ratio is 0.994 ± 0.04.
For GGCGTATCAG the value was 0.979 ± 0.051; for TCGGGTATGG, 1.01 ± 0.042; for TGCGGGTGAT, 0.9857 ± 0.004.
Consider AGCGGGGGTT, for which the switch fluorescence ratio turned out to be 0.9996 ± 0.0055.
Regarding CGGCGGGAGC, the switch fluorescence ratio worked out at 1.05 ± 0.038.
For GGCTATTTTG, the switch fluorescence ratio is 0.999 ± 0.073.
For ACTGTTTTTT the value was 1.02 ± 0.018; for TATTTGGGTT, 1.07 ± 0.082; for GAGGATTGAC, 1 ± 0.038.
CGGCCGTATA: the switch fluorescence ratio turned out to be 0.998 ± 0.013.
For AAGATTTTGT the value was 0.995 ± 0.014.
For TTAATCGGGG the value was 1.05 ± 0.077; for TTTTTACTAG, 1.007 ± 0.0023; for TACGTTCCTG, 1.03 ± 0.028.
For ATTGTGTGGT the value was 1.01 ± 0.026; for TGAAATTGTT, 1 ± 0.045.
For AACGTGAGGG, the switch fluorescence ratio stood at 0.989 ± 0.051.
As for AGATTACTGC, the switch fluorescence ratio was 1.01 ± 0.023.
For ATTTCTCAAT the value was 1.01 ± 0.03; for GGGTAGACTG, 0.955 ± 0.03.
With GGGTATTGAG, the switch fluorescence ratio came out at 0.991 ± 0.012.
For GGTTATAATC the value was 0.969 ± 0.07; for CAAAGCGCTG, 0.986 ± 0.012.
As for AATGCGCCGT, the switch fluorescence ratio is 1.01 ± 0.022.
As to GAGGGGGTTT, the switch fluorescence ratio amounted to 0.99 ± 0.018.
For GATGGATGGG the value was 1.019 ± 0.0069; for AACGGGATAT, 1.09 ± 0.0021; for TTTGGGTGCA, 0.987 ± 0.038.
For TAAAAGGGGA the value was 0.982 ± 0.029.
For TTCTCGGGGA the value was 0.9908 ± 0.0097; for CGTACCATCC, 1.6 ± 0.18; for GGCTCGGTAC, 1.24 ± 0.13.
On to TAGGATAGTG, for which the switch fluorescence ratio is 0.978 ± 0.043.
For GGGGTATTGC the value was 1.004 ± 0.0076; for GATTCAAAGG, 0.9911 ± 0.004.
For TTTCAGGTGG the value was 1.02 ± 0.015; for AAGTATATGG, 1.03 ± 0.029.
With ACACAAATGA, the switch fluorescence ratio was 1.01 ± 0.024.
As for AAGAGTATCT, the switch fluorescence ratio stood at 1.01 ± 0.013.
With AAAGGGAAAC, the switch fluorescence ratio stood at 1.2 ± 0.28.
For TGTTTGTTAG the value was 1.04 ± 0.048.
With GCTGATGCGT, the switch fluorescence ratio stood at 1.01 ± 0.038.
For TGGGGTAGCG the value was 0.998 ± 0.043.
For TAAATCCGGT, the switch fluorescence ratio worked out at 0.997 ± 0.041.
As for CCGGGTGTTT, the switch fluorescence ratio was found to be 1.63 ± 0.75.
For TGCCAACAGA the value was 1.25 ± 0.39.
For CGATAAATTA the value was 0.9971 ± 0.0044; for TTGAAGTGGG, 1.03 ± 0.014.
For CAGGAAAACG the value was 1.03 ± 0.018.
With ATAATACCTT, the switch fluorescence ratio was 1.15 ± 0.094.
For TAAATTTGAA the value was 0.976 ± 0.0034; for GAGTGGGTTT, 0.999 ± 0.03.
Turning to GCTGGGGGAA, the switch fluorescence ratio was found to be 0.98 ± 0.019.
For the sequence TCACTTGAGC, the switch fluorescence ratio was determined as 1.011 ± 0.0091.
